One assay has as its target CD32a (UniProt P12318). The assay is described as follows: solution competition SPR (Biacore).
For assay [1], the target named is VLA-4 on tumor cell lines (UniProt P13612). Kind of assay: inhibition of adhesion of Mec1 cells to VCAM1-Ig-coated wells.
Assay [2] shares this target. The assay is described as follows: flow cytometry on H929 cells (MM).
Assay [3] has the same target. Kind of assay: inhibition of adhesion of HL60 cells to fibronectin-coated wells.
For assay [4] the target is unchanged. Kind of assay: inhibition of adhesion of U266 cells to VCAM1-Ig-coated wells.
Assay [5] has the same target. The assay is described as follows: flow cytometry on HL60 cells (AML).
Assay [6] has the same target. Kind of assay: inhibition of adhesion of Mec1 cells to fibronectin-coated wells.
Assay [7] shares this target. Kind of assay: inhibition of adhesion of KG1 cells to VCAM1-Ig-coated wells.
For assay [8] the target is unchanged. The assay is described as follows: inhibition of adhesion of KG1 cells to fibronectin-coated wells.
The target is the same in assay [9]. Kind of assay: flow cytometry on KG1 cells (AML).
The target is the same in assay [10]. The assay is described as follows: flow cytometry on U266 cells (MM).
Assay [11] deals with α4β1 (VLA-4) as used in the competition ELISAs (UniProt P13612). The assay is described as follows: competition ELISA; integrin preincubated with test mAb, then murine HP1/2 as competing reagent.
Assay [12] addresses VLA-4 on tumor cell lines (UniProt P13612). Kind of assay: inhibition of adhesion of U266 cells to fibronectin-coated wells.
Assay [13] shares this target. Kind of assay: flow cytometry on Mec1 cells (CLL).
Assay [14] has the same target. The assay is described as follows: inhibition of adhesion of H929 cells to fibronectin-coated wells.
For assay [15] the target is unchanged. The assay is described as follows: inhibition of adhesion of HL60 cells to VCAM1-Ig-coated wells.
Assay [16] has as its target α4β1 (VLA-4) as used in the competition ELISAs (UniProt P13612). Kind of assay: competition ELISA; mixture of mouse HP1/2 with test mAb binding to integrin.
In assay [17] the target is VLA-4 on tumor cell lines (UniProt P13612). Kind of assay: inhibition of adhesion of H929 cells to VCAM1-Ig-coated wells.
Assay [18] shares this target. Kind of assay: inhibition of adhesion of JM1 cells to VCAM1-Ig-coated wells.
Assay [19] shares this target. The assay is described as follows: flow cytometry on JM1 cells (CLL).
Assay [20] has as its target VLA receptors (alpha-4 integrin) of cynomolgus monkeys in vivo (cynomolgus monkey). Kind of assay: free receptor measured in cynomolgus monkeys after a single IV dose.
Assay [21] shares this target. The assay is described as follows: model-estimated (direct Emax PKPD model) EC50 for the formation of drug-bound VLA in cynomolgus monkeys.

Chain of TYSABRI (natalizumab) (antibody) (VH): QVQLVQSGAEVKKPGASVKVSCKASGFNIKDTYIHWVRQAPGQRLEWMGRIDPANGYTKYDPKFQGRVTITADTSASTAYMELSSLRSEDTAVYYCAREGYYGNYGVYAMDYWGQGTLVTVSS
Chain of TYSABRI (natalizumab) (antibody) (VL): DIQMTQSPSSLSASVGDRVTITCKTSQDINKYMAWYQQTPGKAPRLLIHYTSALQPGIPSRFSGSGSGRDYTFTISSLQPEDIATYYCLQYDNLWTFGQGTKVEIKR

For the substance EAG2379 (hu5c8 IgG1 T299E) (antibody), in the assay with CD32a, the IC50 was found to be 1280 µM.
Consider HuHP1/2 (antibody), for which the IC50 came to 0.07 nM in assay [1]; 0.00016 µM in assay [3]; 0.00013 µM in assay [4]; 0.0001 µM in [6]; 0.0001 µM in assay [7]; 0.05 nM in assay [8]. Besides, the IC50 in assay [11] amounted to 0.00105 µM; in assay [12] it was 0.00014 µM; in [14], 0.00021 µM; in assay [15] it was 0.00091 µM; in [16] it was 0.00141 µM; in [17] it was 0.00135 µM. In addition, the IC50 in [18] amounted to 0.00012 µM. The EC50 was determined as 0.00091 µM in assay [2]; 0.00011 µM in assay [5]; 0.00019 µM in assay [9]; 0.00046 µM in assay [10]; 0.00011 µM in [13]; 0.00021 µM in assay [19].
For the substance TYSABRI (natalizumab) (antibody), in assay [20], the receptor occupancy is above 90%. For the same substance, the EC50 in assay [21] was 6.4 ng/mL.

Values taken from patent publication US20210238289A1.
